Measurements: the nanobody polyreactivity screen of Harvey et al. (2022)

experiment: yeast display, Sf9 membrane polyspecificity reagent, FACS + sequencing; frameworks hold sequencing errors
Outline: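 Galactose induction of a Saccharomyces cerevisiae BJ5465 synthetic nanobody display library ran 36–48 hours. The cells were then stained for 1 hour at 4 °C with 10% biotinylated, detergent-solubilized Sf9 membrane reagent, pulled down on streptavidin microbeads and FACS-sorted into low and high (top ~1%) gates on expression and reagent-binding fluorescence. Labels for polyreactivity follow the gate of origin.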

| Sequence | polyreactivity (PSR sort gate) |
| --- | --- |
| QDQLVESGGGLVQAGGSLRLSCAPSGSTFGDYDMGGYRPAPGKERELVAAISNGGSTYYAASVKGRFTISRDNAKNTVYLQRNSLKPEDTADFYCNADNVEIRSTYEYGRYLYGYWGQGTQVTVSS | low polyreactivity |
| QVQLVESGGGLVQAGGSLRLSCAASGRTINRYAMGWYRQAPGKERELVAAISTSGGTTYYADSVKGRFTISRDNAKNTVYLQMNSLKPEDTAVYYCNARALAYWGQGTQVTVSS | high polyreactivity |
| QVQLLESGGGLVQAGGSLRLSCASSGRTYWYYAMGWYRQAPGKERELVATITRSTGSTYYADSVKGRFTISRDNAKNTGYLQMNSLKPEDTAVYYCARLYYFNGDYWGQGTQVTVSS | high polyreactivity |
| QVQLVESGGGLVQAGGSLRLSCAASGSIFNTYVMGWYRQAPGKERELVAAITSSGGRTYYADSVKGRFTISRDNAKNTVYLQMNSLKPEDTAVYYCNTAQRWVGRNDYWGQGTQVTVSS | high polyreactivity |
| QVQLVESGGGLVQAGGSLRLSCAASGFIFTRYAMGWYRQAPGKERELVAAISWIGTSTYYADSVKGRFTISRDNAKNTVYLQMNSLKPEDTAVYYCNALRYSTGRPGFYLGYDYWGQGTQVTVSS | high polyreactivity |
| QVQLVESGGGLVQAGGSLRLSCAASGSTFYIYAMGWYRQAPGKEREFVAAIDLSGSSTYADSVKGRFTISRDNAKNTVYLQMKSLKPEDTAVYYCAAYQIYQYDGPYDYWGQGTQVTVSS | low polyreactivity |
| QVQLVESGGGLVQAGGSLRLSCAASGFIFWRNAMGWDRQAPGKDRELVATISRSGGSTYYADSVKGRFTISRDTAKNTVYLQMNSLKPEDTAVYYCATVPWYYWGTHRTLYDYWGQGTQVTVSS | high polyreactivity |
| QVQLEESGGGLVQAGGSLRLSCAASGSISSFNTMGWYRQAPGKERELVAAITRDGSTYYADSVKGRFTISRDNAKNTVYLQMNSLKPEDTAVYYCAARGWYATWLYYYWGQGTQVTVSS | high polyreactivity |
| QVQLVESGGGLVQAGGSLRLSCAASGIIFNSYAMGWYRQAPGKERELVATISGSGGSTYYADSVKGRFTISRDNAKNTVYFQMNSLKPEDTAVYSCAARTGRYYRRYDYWGQGTQVTVSS | high polyreactivity |
| QVQLVESGGGLVLAGGSLRLSCAASGRSFVSNALGWSRQAPGSDRELVARISNGASTDADSVKGRFTISRDNAKKTVYLQINSLKPEDTAVYYSAKTTRRGGVALGEYDYWGQLTQVTVSS | low polyreactivity |
| QVQLVESGGGLVQAGGSLRLSCAASGRTFYPYAMGWYRQAPGKERELVATIRWTGGSTYYADSVKGRFTISRDNAKNTVYLQMNSLKPEDTAVYYCAAQNYFAFIRTYRYVHRPTYYYWGQGTQVTVSS | high polyreactivity |
| QVQLVESGGGLVQAGGSLRLSCAASGRTFDPYAMGWYRQAPGKERELVASISRGGSTYADSVKGRFTISRDNAKNTVFLQMNSLKPEDTAVYYCNTSLYTEGDAMDYWGQGTQVTVSS | low polyreactivity |
| QVQLVESGGGLVQAGGSLRLSCAASGFTFFSKYVMGWYSQAPRKERELVAAISSSGGTTYYADSVKGRFTISRDNAKNTVYLQMNSLKPEDTAVYYCAARLVSSTFQYNMYYWGQGTQVTVSS | high polyreactivity |
| QVQLVESGGGLVQAGGSLRLSCAASGSIFPRDAMGRYRQAPGKERELVAAITGSGSSTYYADSVKGRFTISRDNAKNTVYLQMNSLKPEDTAVYYCNTARPTAAYDYWGQGTKVTVSS | low polyreactivity |
| QVQLVESGGGLVQAGGSLRLSCAASGRTFYGYAMGWYRQAPGKERELVAVITSGVRTNYADSVKGRFTISRDNAKNTVYLQMNSLKPEDTAVYYCAARGTLALRDHYGYWGQGTQVNVSS | high polyreactivity |
| QVQLVESGGGLVQAGGSLRLSCAASGSIFYVNDMGWYRQAPGKERELVAAISSTGSTKYADSVKGRFTISRDNAKNTVYLQMNSLKPEDTAVYYCAKEPGHRFEFDYWGQGTQVTVSS | low polyreactivity |
| QVQRVESGGGLVQAGGSLRLSCAASGSTLYGYALGWYRQAPGKERELVAAISVSGGRTYYADSVKGRFTISRDNAKNTVYLQMNSLKPEDTAVYYCAADGLSPYSGDYWGQGTQVTVSS | high polyreactivity |
